Data reported in article PMC2821155.
Values joined by “and” are separate entries in the source; they are usually repeats but may differ in a detail not shown here. Equal values may be shown once. Read-outs that look alike come from different tables or passages of the source.

Experiments:
Experiment in all cases: native gel or EMSA
[1] = target: GluA1 (UniProt P19490)
[2] = target: GluA1 Lurcher mutant (A636T) (UniProt P19490)
[3] = target: GluA1 Lurcher mutant (A636T) (UniProt P19490); remark: listed apart in the source
[4] = target: GluA1ΔNTD Lurcher mutant (A636T)
[5] = target: HA-GluA1 (UniProt P19490)
[6] = target: HA-GluA1ΔNTD
[7] = target: HA-GluA1ΔNTD-GFP×3
[8] = target: neuronal AMPA receptor complex detected using the anti-GluA2/3 antibody (mouse (endogenous in cerebellar granule cells)) (UniProt P23819)
UniProt P23819, sequence (P23819 25-883, one chain of several): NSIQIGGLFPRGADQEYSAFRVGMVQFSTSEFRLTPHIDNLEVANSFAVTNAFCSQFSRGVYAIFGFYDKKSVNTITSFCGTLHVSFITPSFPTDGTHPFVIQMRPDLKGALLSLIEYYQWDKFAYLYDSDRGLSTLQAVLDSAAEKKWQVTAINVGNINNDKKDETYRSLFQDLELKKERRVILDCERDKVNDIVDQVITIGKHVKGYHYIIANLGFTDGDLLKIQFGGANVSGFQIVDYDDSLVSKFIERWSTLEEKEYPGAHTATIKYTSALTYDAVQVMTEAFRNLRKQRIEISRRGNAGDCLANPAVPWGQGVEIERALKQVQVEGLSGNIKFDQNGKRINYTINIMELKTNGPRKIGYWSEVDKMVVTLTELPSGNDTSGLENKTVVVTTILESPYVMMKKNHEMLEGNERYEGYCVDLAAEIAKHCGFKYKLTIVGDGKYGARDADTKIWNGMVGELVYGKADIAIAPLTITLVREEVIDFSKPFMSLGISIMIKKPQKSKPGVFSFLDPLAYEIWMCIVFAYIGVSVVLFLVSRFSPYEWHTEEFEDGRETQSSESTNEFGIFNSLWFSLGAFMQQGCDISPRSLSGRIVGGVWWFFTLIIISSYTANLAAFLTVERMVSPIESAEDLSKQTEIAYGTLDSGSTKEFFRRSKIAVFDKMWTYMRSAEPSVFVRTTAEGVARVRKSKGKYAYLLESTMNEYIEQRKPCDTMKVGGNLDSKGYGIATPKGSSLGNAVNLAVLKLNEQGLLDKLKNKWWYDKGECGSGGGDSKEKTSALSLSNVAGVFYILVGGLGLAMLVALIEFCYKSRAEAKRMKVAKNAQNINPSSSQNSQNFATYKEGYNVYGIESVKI

Q: With “GluA1 (from UniProt P19490 19-907) (receptor)” as the molecule, how does the stoichiometry N (subunits in the oligomer) [1] read?
A: 4 and 2

Q: What does the source list for “GluA1 Lurcher mutant (A636T) (from UniProt P19490 19-907) (receptor)”?
A: stoichiometry N (subunits in the oligomer) [2]: 4; stoichiometry N (subunits in the oligomer) [3]: 2

Q: Which stoichiometry N (subunits in the oligomer) [4] does the source give for “GluA1ΔNTD Lurcher mutant (A636T) (domain or fragment)” here?
A: 4

Q: “HA-GluA1 (from UniProt P19490 19-907) (receptor)” was tested. Which stoichiometry N (subunits in the oligomer) [5] did it give?
A: 4

Q: With HA-GluA1ΔNTD (domain or fragment) as the molecule, how does the stoichiometry N (subunits in the oligomer) [6] read?
A: 4

Q: With HA-GluA1ΔNTD-GFP×3 (domain or fragment) as the molecule, how does the stoichiometry N (subunits in the oligomer) [7] read?
A: 4

B1: stargazin (endogenous, cerebellar granule cells) (natural protein)
chain: MGLFDRGVQMLLTTVGAFAAFSLMTIAVGTDYWLYSRGVCKTKSVSENETSKKNEEVMTHSGLWRTCCLEGNFKGLCKQIDHFPEDADYEADTAEYFLRAVRASSIFPILSVILLFMGGLCIAASEFYKTRHNIILSAGIFFVSAGLSNIIGIIVYISANAGDPSKSDSKKNSYSYGWSFYFGALSFIIAEMVGVLAVHMFIDRHKQLRATARATDYLQASAITRIPSYRYRYQRRSRSSSRSTEPSHSRDASPVGVKGFNTLPSTEISMYTLSRDPLKAATTPTATYNSDRDNSFLQVHNCIQKDSKDSLHANTANRRTTPV
Q: For B1, which stoichiometry N (stargazin per AMPA receptor tetramer) [8] is on record?
A: 1
